The record followed here is patent US20150147316A1 (Seagen, published 2015).

To fix the notation:
B1: murine mAb 2H12 (antibody, V domains shown)
VH: QVQLQQSGPELVRPGTFVKISCKASGYTFTNYDINWVNQRPGQGLEWIGWIYPGDGSTKYNEKFKAKATLTADKSSSTAYLQLNNLTSENSAVYFCASGYEDAMDYWGQGTSVTVSS
VL: DIKMTQSPSSMYASLGERVIINCKASQDINSYLSWFQQKPGKSPKTLIYRANRLVDGVPSRFSGSGSGQDYSLTISSLEYEDMGIYYCLQYDEFPLTFGAGTKLELK
notes: Murine monoclonal antibody from Balb/c mice; also called m2H12; murine 2H12 antibody
B2: HILE (antibody, V domains shown)
VH: QVQLVQSGAEVKKPGASVKVSCKASGYTFTNYDINWVRQAPGQGLEWIGWIYPGDGSTKYNEKFKAKATLTADTSTSTAYMELRSLRSDDTAVYYCASGYEDAMDYWGQGTTVTVSS
VL: DIQMTQSPSSLSASVGDRVTITCKASQDINSYLSWFQQKPGKAPKSLIYRANRLVDGVPSRFSGSGSGTDYTLTISSLQPEDFATYYCLQYDEFPLTFGGGTKVEIK
notes: Humanized antibody, heavy chain HI with light chain LE
B3: h2H12 antibody (2H12 HILG) (antibody, V domains shown)
VH: B2 VH
VL: B2 VL with T22N, S46T, T69Q
notes: also called humanized 2H12; human 2H12 antibody
B4: HCLE (antibody, V domains shown)
VH: B2 VH with I48M, K67R, A68V, L70M, A72T
VL: B2 VL
notes: Humanized antibody, heavy chain HC with light chain LE
B5: HCLA (antibody, V domains shown)
VH: B2 VH with I48M, K67R, A68V, L70M, A72T
VL: B2 VL with Y71F
notes: Humanized antibody, heavy chain HC with light chain LA
B6: HILA (antibody, V domains shown)
VH: B2 VH
VL: B2 VL with Y71F
notes: Humanized antibody, heavy chain HI with light chain LA
B7: HCLG (antibody, V domains shown)
VH: B2 VH with I48M, K67R, A68V, L70M, A72T
VL: B2 VL with T22N, S46T, T69Q
notes: Humanized antibody, heavy chain HC with light chain LG
B8: cHLA (antibody, V domains shown)
VH: B1 VH
VL: B2 VL with Y71F
notes: Hybrid of the chimeric heavy chain (murine VH, human constant region) and humanized light chain LA
B9: c2H12 (antibody, V domains shown)
VH: B1 VH
VL: B1 VL
notes: also called chimeric 2H12
B10: cHLB (antibody, V domains shown)
VH: B1 VH
VL: B2 VL with Q3K, Y71F
notes: Hybrid of the chimeric heavy chain (murine VH, human constant region) and humanized light chain LB
B11: HIcL (antibody, V domains shown)
VH: B2 VH
VL: B1 VL
notes: Hybrid of humanized heavy chain HI and the chimeric light chain (murine VL, human constant region)
B12: HCcL (antibody, V domains shown)
VH: B2 VH with I48M, K67R, A68V, L70M, A72T
VL: B1 VL
notes: Hybrid of humanized heavy chain HC and the chimeric light chain (murine VL, human constant region)
B13: cHLG (antibody, V domains shown)
VH: B1 VH
VL: B2 VL with T22N, S46T, T69Q
notes: Hybrid of the chimeric heavy chain (murine VH, human constant region) and humanized light chain LG
B14: cHLC (antibody, V domains shown)
VH: B1 VH
VL: B2 VL with S46T, Y71F
notes: Hybrid of the chimeric heavy chain (murine VH, human constant region) and humanized light chain LC
B15: cHLD (antibody, V domains shown)
VH: B1 VH
VL: B2 VL with T69Q, Y71F
notes: Hybrid of the chimeric heavy chain (murine VH, human constant region) and humanized light chain LD
B16: cHLF (antibody, V domains shown)
VH: B1 VH
VL: B2 VL with T20I, T22N, Y71F
notes: Hybrid of the chimeric heavy chain (murine VH, human constant region) and humanized light chain LF
B17: cHLE (antibody, V domains shown)
VH: B1 VH
VL: B2 VL
notes: Hybrid of the chimeric heavy chain (murine VH, human constant region) and humanized light chain LE
B18: m2H12-SGD-1269 (other)
VH: B1 VH
VL: B1 VL
modifications: conjugated to drug-linker SGD-1269 (mcMMAF); sites and load not stated for the murine antibody
B19: HAcL (antibody, V domains shown)
VH: B2 VH with I48M, K67R, A68V, L70M, A72T, S98R
VL: B1 VL
notes: Hybrid of humanized heavy chain HA and the chimeric light chain (murine VL, human constant region)
B20: HHcL (antibody, V domains shown)
VH: B2 VH with I48M, K67R, A68V, L70M, A72T, R84S, R87T, S98R
VL: B1 VL
notes: Hybrid of humanized heavy chain HH and the chimeric light chain (murine VL, human constant region)
B21: HEcL (antibody, V domains shown)
VH: B2 VH with K67R, A68V, L70M, A72T, S98R
VL: B1 VL
notes: Hybrid of humanized heavy chain HE and the chimeric light chain (murine VL, human constant region)
B22: HBcL (antibody, V domains shown)
VH: B2 VH with I48M, K67R, A68V, L70M, S98R
VL: B1 VL
notes: Hybrid of humanized heavy chain HB and the chimeric light chain (murine VL, human constant region)
B23: HFcL (antibody, V domains shown)
VH: B2 VH with R38N, A40R, I48M, K67R, A68V, L70M, A72T, S98R
VL: B1 VL
notes: Hybrid of humanized heavy chain HF and the chimeric light chain (murine VL, human constant region)
B24: HGcL (antibody, V domains shown)
VH: B2 VH with I48M, A72T, S98R
VL: B1 VL
notes: Hybrid of humanized heavy chain HG and the chimeric light chain (murine VL, human constant region)
B25: HDcL (antibody, V domains shown)
VH: B2 VH with I48M, K67R, A68V, L70M, A72T, T74K, S98R
VL: B1 VL
notes: Hybrid of humanized heavy chain HD and the chimeric light chain (murine VL, human constant region)

Numbering of substitutions follows the chain as printed.

The target of the first experiment is T1, human CD33 (human, UniProt P20138 18-364).
T1 construct: Endogenous on HL-60 and HEL 92.1.7 AML cells, or recombinant on transfected HEK293F cells; The signal peptide is stated as amino acids 1-17; also called hCD33
T1 sequence (P20138 18-364): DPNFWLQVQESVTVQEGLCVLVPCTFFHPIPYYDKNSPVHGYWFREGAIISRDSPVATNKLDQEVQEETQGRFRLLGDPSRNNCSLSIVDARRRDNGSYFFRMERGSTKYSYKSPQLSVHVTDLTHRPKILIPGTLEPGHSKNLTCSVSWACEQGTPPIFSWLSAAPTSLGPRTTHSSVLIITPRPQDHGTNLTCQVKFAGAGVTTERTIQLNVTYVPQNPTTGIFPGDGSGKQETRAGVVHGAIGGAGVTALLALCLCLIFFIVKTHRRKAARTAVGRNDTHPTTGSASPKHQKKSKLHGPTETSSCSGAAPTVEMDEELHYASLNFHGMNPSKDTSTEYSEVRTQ
The experiment is described as follows: flow cytometry on HEK293F cells expressing human CD33; competition with 1 nM AlexaFluor-647 m2H12 (methods paragraph 148). As to the method: (§1) Cells were centrifuged, washed 3 times with PBS, and resuspended in 125 μL of a PBS+1% BSA solution. Fluorescence was analyzed using a flow cytometer, and the percent of saturated fluorescent signal was used to determine percent labeled 2H12 mAb bound. The EC50 was extrapolated by fitting the data to a sigmoidal dose-response curve with variable slope.
(§2) Humanized heavy and light chains were paired with chimeric light and heavy chains (chimeric chains composed of murine variable regions and human constant regions) respectively. The humanized/chimeric hybrid variants of CD33 mAb were tested for binding to human CD33 expressed on the surface of HEL 92.1.7 AML cells (Table 5). Heavy chains HC and HI were selected for further study. Humanized antibodies were expressed representing permutations of humanized heavy chains HC and HI and humanized light chains LA, LE and LG and binding to cells expressing human or cynomolgus (cyno) CD33 was determined (Table 6). The HILG antibody (2H12 HILG) was selected as the humanized antibody that most closely resembled the binding characteristics of the murine CD33 mAb m2H12. The HILG antibody is referred to as the h2H12 antibody ([…] 2H12 antibody). The KD for m2H12, h2H12, and h2H12 with an S239C mutation (EU numbering) in the IgG1 heavy chain (referred to as h2H12EC, for engineered cysteine), was determined for human CD33 expressed as an endogenous protein in two AML cell lines or as a recombinant protein in a HEK293F cell line. The KD for these antibodies was also determined for cyno CD33 expressed as a recombinant protein in a HEK293F cell line (Table 7).
On the technique in general: Flow cytometry measures light scatter and fluorescence of single cells or particles in a stream.
In the case of B1, it took 11.6 nM to reach a half-maximal effect (EC50).

In the case of B2, the EC50 (usually the concentration that produces a half-maximal response) stood at 19.3 nM.

B3 yielded an EC50 of 14.4 nM.

Molecule B4 gave an EC50 of 22.2 nM.

Consider B5, for which the EC50 came out at 31.7 nM.

B6 gave an EC50 of 26.8 nM.

Consider B7, for which the concentration for a half-maximal effect (EC50) stood at 17.9 nM. The EC50 values of the last two molecules are within 1.5-fold of each other.

Another experiment deals with T1, human CD33. The experiment is described as follows: flow cytometry on HEL 92.1.7 AML cells; competition with 1 nM AlexaFluor-647 m2H12 (methods paragraph 148). As to the method:
as §1, §2
The molecule B1 gave an EC50 of 2.38 nM.

In the case of B8, the EC50 is 2.61 nM.

B9: the EC50 was 1.97 nM.

Consider B10, for which the response was half-maximal at 2.53 nM (EC50).

B11 displayed an EC50 of 2.56 nM. This EC50 and that of the molecule before are within 1.5-fold of each other.

On to B12, for which the midpoint of the response, the EC50, lay at 2.95 nM.

As for B13, a half-maximal response (EC50) required 1.91 nM.

The molecule B14 had an EC50 of 2.49 nM.

B15: the EC50 is 2.48 nM.

Take B16: a half-maximal effect (EC50) was put at 2.02 nM.

The molecule B17 registered an EC50 of 1.95 nM.

Take B3: it took 3.39 nM to reach a half-maximal effect (EC50).

The target of a further experiment is T1, human CD33. Description: flow cytometry on HEL 92.1.7 cells; competition with 1 nM AlexaFluor-647 m2H12 (methods paragraph 148). As to the method: as §1, §2
On to B1, for which the EC50 is 5.4 nM.

The molecule B2 displayed an EC50 of 11.1 nM.

B3: the EC50 was determined as 7.8 nM.

For B4, the EC50 worked out at 12.8 nM.

B5 returned an EC50 of 13.6 nM.

With B6, the EC50 worked out at 12.2 nM.

Regarding B7, the midpoint of the response, the EC50, lay at 7.9 nM.

The next experiment has as its target T1, human CD33. The experiment is described as follows: cell-based or functional assay.
B18: the “IC50, cytotoxicity on HL-60 cells (96 h, CelltiterGlo)” value was found to be 1.3 ng/mL.

In another experiment the target is T1, human CD33. The experiment is described as follows: flow cytometry on HEL 92.1.7 AML cells.
B19: the binding result was “no binding (tested: 0.03 nM to 600 nM (methods))”.

For B20, the binding result is “no binding (tested: 0.03 nM to 600 nM (methods))”.

Regarding B21, the binding result is on record as “no binding (tested: 0.03 nM to 600 nM (methods))”.

As to B22, the binding result is listed as “no binding (tested: 0.03 nM to 600 nM (methods))”.

With B23, the binding result is “no binding (tested: 0.03 nM to 600 nM (methods))”.

Take B24: the binding result is reported as “no binding (tested: 0.03 nM to 600 nM (methods))”.

On to B25, for which the binding result was “no binding (tested: 0.03 nM to 600 nM (methods))”.

The target of a further experiment is T2, cynomolgus CD33 (cynomolgus).
T2 construct: Recombinant on transfected HEK293F cells; also called cyno CD33; cynoCD33
T2 sequence (chain, as listed by the source limits assumed): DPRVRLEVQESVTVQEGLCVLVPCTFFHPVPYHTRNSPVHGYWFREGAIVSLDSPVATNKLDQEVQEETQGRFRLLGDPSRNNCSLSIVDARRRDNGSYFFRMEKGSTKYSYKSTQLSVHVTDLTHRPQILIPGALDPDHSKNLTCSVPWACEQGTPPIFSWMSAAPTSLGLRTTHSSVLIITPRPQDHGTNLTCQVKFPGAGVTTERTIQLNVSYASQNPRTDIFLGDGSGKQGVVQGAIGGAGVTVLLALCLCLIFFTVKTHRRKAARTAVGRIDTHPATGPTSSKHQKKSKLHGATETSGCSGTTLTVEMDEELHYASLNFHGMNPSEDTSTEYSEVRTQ
Description: flow cytometry on HEK293F cells expressing cyno CD33; competition with 1 nM AlexaFluor-647 m2H12 (methods paragraph 148). As to the method:
as §1, §2
Take B1: the EC50 is 30.6 nM.

On to B2, for which the EC50 amounted to 64.8 nM.

For B3, the EC50 was 39.9 nM.

B4: the EC50 is 129 nM. Against the preceding molecule, the EC50 is about 3.2-fold higher.

The molecule B5 showed an EC50 of 141 nM.

The molecule B6 came in with an EC50 of 126 nM.

In turn, B7 showed an EC50 of 63 nM.
